Results as given in the Immune Epitope Database (IEDB).

Legend:
[1] = target: HLA-B*44:02; experiment: IEDB peptide-MHC binding, purified MHC/competitive/radioactivity; filed as Kd, often an IC50 or EC50 that approximates it; ≥ and ≤ were set here for values at or beyond the usual limits of such assays
[2] = target: HLA-B*40:01; experiment: as above
[3] = target: HLA-B*18:01; experiment: as above
[4] = target: HLA-B*40:02; experiment: as above
[5] = target: HLA-B*44:03; experiment: as above
[6] = target: HLA-B*45:01; experiment: as above
[7] = target: HLA-A*02:02; experiment: as above
[8] = target: HLA-A*02:03; experiment: as above
[9] = target: HLA-A*68:02; experiment: as above
[10] = target: HLA-A*02:01; experiment: as above
[11] = target: HLA-A*02:06; experiment: as above
[12] = target: HLA-A*26:01; experiment: IEDB peptide-MHC binding, purified MHC/competitive/fluorescence; filed as Kd, often an IC50 or EC50 that approximates it; ≥ and ≤ were set here for values at or beyond the usual limits of such assays; details: source organism: Mammarenavirus lassaense
[13] = target: HLA-A*69:01; experiment: IEDB peptide-MHC binding, purified MHC/direct/fluorescence; filed as Kd, often an IC50 or EC50 that approximates it; ≥ and ≤ were set here for values at or beyond the usual limits of such assays; details: source organism: Mammarenavirus lassaense
[14] = target: HLA-A*02:01; experiment: as above; details: source organism: Mammarenavirus lassaense
[15] = source organism: Lymphocytic choriomeningitis virus (strain Armstrong)
[16] = source organism: Mammarenavirus guanaritoense
[17] = source organism: Hepatitis C virus (isolate BK)
[18] = source organism: SARS coronavirus Tor2
[19] = source organism: Mammarenavirus machupoense
[20] = source organism: Trypanosoma cruzi
[21] = source organism: Lassa virus Josiah
[22] = source organism: Mammarenavirus brazilense
[23] = source organism: Lymphocytic choriomeningitis virus (strain WE)

ADNMITEML
Kd [1, 15]: 17.7 µM
Kd [2, 15]: 19.5 µM
Kd [3, 15]: ≥ 77.5 µM
Kd [4, 15]: 1.41 µM
Kd [5, 15]: 17.8 µM
Kd [6, 15]: ≥ 77.7 µM

AEFTFQLNL
Kd [1, 16]: 0.0599 µM
Kd [2, 16]: 0.0661 µM
Kd [3, 16]: 5.93 µM
Kd [4, 16]: 0.000946 µM
Kd [5, 16]: 0.0508 µM
Kd [6, 16]: 0.21 µM

CVNGVCWTV
Kd [7, 17]: 1.04 µM
Kd [8, 17]: 2.08 µM
Kd [9, 17]: 0.948 µM
Kd [10, 17]: 1.02 µM
Kd [11, 17]: 2.67 µM

DEWSVATFYL
Kd [1, 18]: 0.939 µM
Kd [2, 18]: 1.49 µM
Kd [3, 18]: 0.0771 µM
Kd [4, 18]: 0.119 µM
Kd [5, 18]: 0.356 µM
Kd [6, 18]: 1.01 µM

DKLVDPINY
Kd ([1]; source organism: Variola virus): ≥ 77.9 µM
Kd ([2]; source organism: Variola virus): 15.5 µM
Kd ([3]; source organism: Variola virus): ≥ 77.5 µM
Kd ([4]; source organism: Variola virus): ≥ 77.2 µM
Kd ([5]; source organism: Variola virus): ≥ 78.1 µM
Kd ([6]; source organism: Variola virus): ≥ 77.7 µM

DLKDLEAHI
Kd ([9]; source organism: Homo sapiens): 17.6 µM
Kd ([10]; source organism: Homo sapiens): ≥ 83.4 µM
Kd ([11]; source organism: Homo sapiens): ≥ 109 µM

DVADLFPAQ
Kd [12]: 1.78 µM

EEAARCMRSL
Kd [1, 18]: 0.164 µM
Kd [2, 18]: 0.802 µM
Kd [3, 18]: 6.89 µM
Kd [4, 18]: 0.184 µM
Kd [5, 18]: 0.406 µM
Kd [6, 18]: 0.085 µM

EEILGTVSW
Kd [1, 18]: 0.00319 µM
Kd [2, 18]: 3.08 µM
Kd [3, 18]: 0.0783 µM
Kd [4, 18]: 0.378 µM
Kd [5, 18]: 0.00258 µM
Kd [6, 18]: 1.55 µM

EEVLDVCPLG
Kd [1, 19]: ≥ 70.2 µM
Kd [2, 19]: 14.2 µM
Kd [3, 19]: 4.84 µM
Kd [4, 19]: 9.75 µM
Kd [5, 19]: ≥ 51.1 µM
Kd [6, 19]: 4.44 µM

ELLRPTTLV
Kd [7, 20]: 4.03 µM
Kd [8, 20]: 1.39 µM
Kd [9, 20]: 0.087 µM
Kd [11, 20]: 2.08 µM

FANYGFTLA
Kd [7, 20]: 1.98 µM
Kd [8, 20]: 0.0462 µM
Kd [9, 20]: 1.64 µM
Kd [10, 20]: 1.5 µM
Kd [11, 20]: 0.000447 µM

FVFSTSFYL
Kd [13]: 0.0012 µM
Kd [14]: ≤ 0.001 µM
Kd [7, 21]: 0.0015 µM
Kd [8, 21]: 0.051 µM
Kd [9, 21]: 0.000508 µM
Kd [11, 21]: 0.0137 µM

GVSWMIRILI
Kd ([9]; source organism: Dengue virus 4 Dominica/814669/1981): 0.197 µM

HEFVDEFYA
Kd [1, 18]: 18.6 µM
Kd [2, 18]: 1.19 µM
Kd [3, 18]: 3.01 µM
Kd [4, 18]: 0.055 µM
Kd [5, 18]: 5.58 µM
Kd [6, 18]: 0.157 µM

IDYRHYSASF
Kd [1, 18]: 5.84 µM
Kd [2, 18]: ≥ 44.6 µM
Kd [3, 18]: ≥ 31.5 µM
Kd [4, 18]: 2.67 µM
Kd [5, 18]: ≥ 36.5 µM
Kd [6, 18]: 0.978 µM

IEYSDFATSA
Kd [1, 18]: 0.728 µM
Kd [2, 18]: 16.7 µM
Kd [3, 18]: 0.135 µM
Kd [4, 18]: 0.147 µM
Kd [5, 18]: 0.658 µM
Kd [6, 18]: 0.154 µM

KEPGVSRELL
Kd [1, 22]: ≥ 70.2 µM
Kd [2, 22]: 1.32 µM
Kd [3, 22]: ≥ 70.4 µM
Kd [4, 22]: 1.06 µM
Kd [5, 22]: ≥ 70.1 µM
Kd [6, 22]: ≥ 70 µM

KEPVESCPLM
Kd [1, 23]: 14.3 µM
Kd [2, 23]: 11.8 µM
Kd [3, 23]: ≥ 34.4 µM
Kd [4, 23]: 0.208 µM
Kd [5, 23]: ≥ 40.8 µM
Kd [6, 23]: ≥ 70 µM
